The assay deals with monomeric biotinylated FN7-10 (biotin (biotinylated; site not stated)). The experiment in a line: SPR. On the technique in general: In SPR one partner is held on a chip, and binding of the other changes the refractive index at the surface.

B1: purified recombinant human αvβ6 integrin (receptor)
chain 1: FNLDVDSPAEYSGPEGSYFGFAVDFFVPSASSRMFLLVGAPKANTTQPGIVEGGQVLKCDWSSTRRCQPIEFDATGNRDYAKDDPLEFKSHQWFGASVRSKQDKILACAPLYHWRTEMKQEREPVGTCFLQDGTKTVEYAPCRSQDIDADGQGFCQGGFSIDFTKADRVLLGGPGSFYWQGQLISDQVAEIVSKYDPNVYSIKYNNQLATRTAQAIFDDSYLGYSVAVGDFNGDGIDDFVSGVPRAARTLGMVYIYDGKNMSSLYNFTGEQMAAYFGFSVAATDINGDDYADVFIGAPLFMDRGSDGKLQEVGQVSVSLQRASGDFQTTKLNGFEVFARFGSAIAPLGDLDQDGFNDIAIAAPYGGEDKKGIVYIFNGRSTGLNAVPSQILEGQWAARSMPPSFGYSMKGATDIDKNGYPDLIVGAFGVDRAILYRARPVITVNAGLEVYPSILNQDNKTCSLPGTALKVSCFNVRFCLKADGKGVLPRKLNFQVELLLDKLKQKGAIRRALFLYSRSPSHSKNMTISRGGLMQCEELIAYLRDESEFRDKLTPITIFMEYRLDYRTAADTTGLQPILNQFTPANISRQAHILLDCGEDNVCKPKLEVSVDSDQKKIYIGDDNPLTLIVKAQNQGEGAYEAELIVSIPLQADFIGVVRNNEALARLSCAFKTENQTRQVVCDLGNPMKAGTQLLAGLRFSVHQQSEMDTSVKFDLQIQSSNLFDKVSPVVSHKVDLAVLAAVEIRGVSSPDHVFLPIPNWEHKENPETEEDVGPVVQHIYELRNNGPSSFSKAMLHLQWPYKYNNNTLLYILHYDIDGPMNCTSDMEINPLRIKISSLQTTEKNDTVAGQGERDHLITKRDLALSEGDIHTLGCGVAQCLKIVCQVGRLDRGKSAILYVKSLLWTETFMNKENQNHSYSLKSSASFNVIEFPYKNLPIEDITNSTLVTTNVTWGIQPAPMPV
chain 2: GCALGGAETCEDCLLIGPQCAWCAQENFTHPSGVGERCDTPANLLAKGCQLNFIENPVSQVEILKNKPLSVGRQKNSSDIVQIAPQSLILKLRPGGAQTLQVHVRQTEDYPVDLYYLMDLSASMDDDLNTIKELGSRLSKEMSKLTSNFRLGFGSFVEKPVSPFVKTTPEEIANPCSSIPYFCLPTFGFKHILPLTNDAERFNEIVKNQKISANIDTPEGGFDAIMQAAVCKEKIGWRNDSLHLLVFVSDADSHFGMDSKLAGIVIPNDGLCHLDSKNEYSMSTVLEYPTIGQLIDKLVQNNVLLIFAVTQEQVHLYENYAKLIPGATVGLLQKDSGNILQLIISAYEELRSEVELEVLGDTEGLNLSFTAICNNGTLFQHQKKCSHMKVGDTASFSVTVNIPHCERRSRHIIIKPVGLGDALELLVSPECNCDCQKEVEVNSSKCHHGNGSFQCGVCACHPGHMGPRCECGEDMLSTDSCKEAPDHPSCSGRGDCYCGQCICHLSPYGNIYGPYCQCDNFSCVRHKGLLCGGNGDCDCGECVCRSGWTGEYCNCTTSTDSCVSEDGVLCSGRGDCVCGKCVCTNPGASGPTCERCPTCGDPCNSKRSCIECHLSAAGQAREECVDKCKLAGATISEEEDFSKDGSVSCSLQGENECLITFLITTDNEGKTIIHSINEKDCPKPPNIP
Turning to B1, the “kont relative to α5β1” value is approximately 0.5 fold.

The values are drawn from paper PMC4031069 (Nature materials, 2014).
